# B1: MAGEA4 vaccine: MAGEA4 vaccine containing protein, given subcutaneously once every 2 weeks in six doses (Saito et al., 2014) (protein, UniProt P43358 1-317, looked up)
# Melanoma-associated antigen 4: MSSEQKSQHCKPEEGVEAQEEALGLVGAQAPTTEEQEAAVSSSSPLVPGTLEEVPAAESAGPPQSPQGASALPTTISFTCWRQPNEGSSSQEEEGPSTSPDAESLFREALSNKVDELAHFLLRKYRAKELVTKAEMLERVIKNYKRCFPVIFGKASESLKMIFGIDVKEVDPASNTYTLVTCLGLSYDGLLGNNQIFPKTGLLIIVLGTIAMEGDSASEEEIWEELGVMGVYDGREHTVYGEPRKLLTQDWVQENYLEYRQVPGSNPARYEFLWGPRALAETSYVKVLEHVVRVNARVRIAYPSLREAALLEEEEGV
# modifications: vaccine formulation
# Columns and labels:
# [1] = molecular target: HLA-A*0201 molecule (Homo sapiens, UniProt P04439, D140Y/D185E/D98H/E176V/E277Q/G131W/G231S/I119V/I121R/I166T/I218V/L300P/L318F/N151K/N90K/P208A/P217A/Q86G/Q94H/R138H/R169H/T345S); settings: Wu et al. 2011; cited from earlier work
# [2] = system: HLA-A*0201-positive PBMCs; settings: cited from earlier work
# [3] = system: HLA-A*0201/Kb transgenic mice; settings: cited from earlier work
# [4] = molecular target: HLA-A*02:01 (Homo sapiens, UniProt P04439, D140Y/D185E/D98H/E176V/E277Q/G131W/G231S/I119V/I121R/I166T/I218V/L300P/L318F/N151K/N90K/P208A/P217A/Q86G/Q94H/R138H/R169H/T345S); experiment: Binding to HLA-A*02:01 (additional data, Example 6)
# [5] = system: T-cells of healthy donors; experiment: Immunogenicity and functional T-cell data (Example 6); type: cell-based, human
# Method: The immunogenicity of MAG-003 was tested using protocols that mimic the manufacturing procedure for a pharmaceutical product.
# [6] = system: advanced esophageal, stomach or lung cancer; settings: of 15 patients who completed one vaccination cycle; cited from earlier work
molecule,measurement,setting,value
"p286-1Y2L9L: MAG-003 variant having 3 amino acid substitutions, printed as SEQ ID NO:3 (KVLEHVVRA; listed as Homo sapiens)",binding affinity and stability towards HLA-A*0201 molecule,[1],potent binding affinity and stability
same,induction of specific CTLs that lyse target cancer cells,"[2]; PBMCs of healthy donors, Wu et al. 2011",capability to induce specific CTLs
same,induction of specific CTLs that lyse target cancer cells,"[3]; HLA-A2.1/Kb transgenic mice, Wu et al. 2011",capability to induce specific CTLs
KVLEHVVRV (listed as Homo sapiens) [MAG-003],binding affinity and stability towards HLA-A*0201 molecule,[1],potent binding affinity and stability
same,lysis of target cells by the induced CTLs,[2]; Jia et al. 2010,lyse target cells in an HLA-A*0201-restricted fashion
same,elicitation of peptide-specific CTLs,"[2]; in vitro from HLA-A*0201-positive PBMCs, Jia et al. 2010",elicits peptide-specific CTLs
same,elicitation of peptide-specific CTLs,"[3]; HLA-A*0201/Kb transgenic mice, Jia et al. 2010",elicits peptide-specific CTLs
same,binding to HLA-A*02:01,[4],very good binding
same,killing of peptide loaded target cells by generated T cells,[5],able to kill peptide loaded target cells
same,priming of peptide-specific T-cells,"[5]; healthy donors, protocols mimicking manufacturing procedure",Priming of MAG-003-specific T-cells was observed
"p286-1Y2L: MAG-003 variant having 2 amino acid substitutions, printed as SEQ ID NO:2 (KVLEHVVRL; listed as Homo sapiens)",binding affinity and stability towards HLA-A*0201 molecule,[1],potent binding affinity and stability
B1,patients with CD4 T-cell response,[6],three
same,patients with CD8 T-cell response,[6],six
same,patients with MAGEA4-specific humoral response,[6],four
